How the values were obtained:
[1] = target: T1, octameric peptide AVSEATIR
T1 chain: AVSEATIR

[2] = target: T2, peptide AQYPQEVITTVRG (PhoP)
T2 chain: AQYPQEVITTVRG

[3] = target: T3, peptide ATVAKCVEALKERFQASLRD (PheT)
T3 chain: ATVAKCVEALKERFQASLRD

[4] = target: T4, peptide ELNREQKWQMMLSKSMRR (CaiF)
T4 chain: ELNREQKWQMMLSKSMRR

[5] = target: T5, peptide KHVQALDLSMRFR (Nicotinate-nucleotide diphosphorylase)
T5 chain: KHVQALDLSMRFR

[6] = target: T6, peptide KLLRLFFPLSLRV (PhoQ)
T6 chain: KLLRLFFPLSLRV

[7] = target: T7, peptide KTPLAVLQSTLRS (PhoQ)
T7 chain: KTPLAVLQSTLRS

[8] = target: T8, peptide KTPLAVLQSTLRSLR (PhoQ)
T8 chain: KTPLAVLQSTLRSLR

[9] = target: T9, peptide KWQMMLSKSMRR (CaiF)
T9 chain: KWQMMLSKSMRR

[10] = target: T10, peptide LAVLQSTLRSLRS (PhoQ)
T10 chain: LAVLQSTLRSLRS

[11] = target: T11, peptide LLRLFFPLSLRV (PhoQ)
T11 chain: LLRLFFPLSLRV

[12] = target: T12, peptide LTELNREQKWQMMLSKSMRR (CaiF)
T12 chain: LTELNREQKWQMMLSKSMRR

[13] = target: T13, peptide LTHSLKTPLAVLQSTLRS (PhoQ)
T13 chain: LTHSLKTPLAVLQSTLRS

[14] = target: T14, peptide NTHRGMGYSLRGL (CreB)
T14 chain: NTHRGMGYSLRGL

peptide RLLPAVSEATIRRL = target: T15, peptide RLLPAVSEATIRRL
T15 chain: RLLPAVSEATIRRL

[15] = target: T16, peptide VAKCVEALKERFQASLRD (PheT)
T16 chain: VAKCVEALKERFQASLRD

[16] = target: T17, peptide VEALKERFQASLRD (Phenylalanyl-tRNA synthetase)
T17 chain: VEALKERFQASLRD

B1: Recombinant YcfD, N-terminally hexa-His tagged (E. coli) (protein)
chain: MEYQLTLNWPDFLERHWQKRPVVLKRGFNNFIDPISPDELAGLAMESEVDSRLVSHQDGKWQVSHGPFESYDHLGETNWSLLVQAVNHWHEPTAALMRPFRELPDWRIDDLMISFSVPGGGVGPHLDQYDVFIIQGTGRRRWRVGEKLQMKQHCPHPDLLQVDPFEAIIDEELEPGDILYIPPGFPHEGYALENAMNYSVGFRAPNTRELISGFADYVLQRELGGNYYSDPDVPPRAHPADVLPQEMDKLREMMLELINQPEHFKQWFGEFISQSRHELDIAPPEPPYQPDEIYDALKQGEVLVRLGGLRVLRIGDDVYANGEKIDSPHRPALDALASNIALTAENFGDALEDPSFLAMLAALVNSGYWFFEG
position of hydroxylation (2D-NMR after incubation with YcfD) [1]: 2D-NMR analyses revealed the position of hydroxylation as at C-3 of the hydroxylated arginine-residue
% hydroxylation (+16 Da) [2]: 60%
% hydroxylation (+16 Da) [3]: 40%
% hydroxylation (+16 Da) [4]: 40%
% hydroxylation (+16 Da) [5]: 30%
% hydroxylation (+16 Da) [6]: 60%
% hydroxylation (+16 Da) [7]: 95%
% hydroxylation (+16 Da) [8]: 40%
% hydroxylation (+16 Da) [9]: 30%
% hydroxylation (+16 Da) [10]: 60%
% hydroxylation (+16 Da) [11]: 50%
% hydroxylation (+16 Da) [12]: 40%
% hydroxylation (+16 Da) [13]: 90%
% hydroxylation (+16 Da) [14]: 30%
+16Da mass shift (hydroxylation, MALDI-TOF MS) (peptide RLLPAVSEATIRRL): gave a +16Da mass shift upon incubation with YcfD in an Fe(II) and 2OG dependent manner
% hydroxylation (+16 Da) [15]: 50%
% hydroxylation (+16 Da) [16]: 40%
